In one experiment the target is FLAG-SEPN1^D80A (human) (UniProt Q9NZV5). As to the kind of experiment: sucrose gradient sedimentation; lysates of HeLa cells treated for 2 h with DMSO or Tg; 4% to 20% sucrose gradients, 19 fractions, FLAG immunoblot; markers BSA, IgG, catalase. A general note: Immunoblotting shows a protein as a band on a membrane.
The next experiment has as its target FLAG-SEPN1^U428C (human) (UniProt Q9NZV5). Described as above.

In the experiment with FLAG-SEPN1^D80A (human), “FLAG-SEPN1^D80A (from UniProt Q9NZV5-2 44-556) (natural protein)” gave a percent monomer (DMSO-treated cells) of 79.7%, a percent monomer (Tg-treated cells) of 78.4%, a percent oligomer (DMSO-treated cells) of 21.5% and a percent oligomer (Tg-treated cells) of 21.5%.
Consider “FLAG-SEPN1^U428C (from UniProt Q9NZV5-2 44-556) (natural protein)”, for which, in the experiment with FLAG-SEPN1^U428C (human), the percent monomer (Tg-treated cells) stood at 61.8% and the percent oligomer (DMSO-treated cells) stood at 96.2%.

For the origin of these results see PMC7474598.
